# System: K4 kissing-loop RNA reporter
# Assay: apparent KD of K4 kissing-loop reporter; higher = weaker reporter binding
# Conditions: Eterna round: R107; input ligand: FMN 200 uM
# Method: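 RNA-MaP round R107: designed RNA switches with theophylline, tryptophan, arginine or FMN aptamers are transcribed on-chip within common flanks. They are titrated with a labelled K4 kissing-loop RNA reporter in RNA-MaP buffer (100 mM Tris pH 7.5, 80 mM KCl, 4 mM MgCl2), without ligand or with the indicated ligand. Median apparent KD per design.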
# 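Also: bound reporter read as fluorescence of individual clusters on recovered sequencing chips by microscopy, with normalized cluster intensities fitted with a binding model.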
row,Sequence,apparent KD of K4 kissing-loop reporter
1,UUUACUCCGAGUGAUGUUCGGCGUAUCUGACGAGGACCGGUACGGCCGCCACUCGGUUCGACUACGAAGGCCUUGGCCACAGAUU,268 nM
2,GCAGUGAUGUUGCUGAUGUACAGUGGGAUACGAGGACCGGUACGGCCGCCACUCGUACAGAAUUUGUUAAUACAUCGAUAAGUGA [XV],377 nM
3,GGAUAGGACAGAGGAUAUCCAGUGAUGUUGGAGAAUUCUCCUUCAACAUGUCACAAAAGUGGCAUGGGAGAAGGCUGUCCUAUCG [Mod of Eli's FmnBX 29 v2],388 nM
4,AAUCAAUACAGAAGGAGCGUGACAUUUGCUAUUGUAAUUUUAGCUAGUGAUGUUAGCAUUUCACAGGUAGGUCGCUGUACAUUUA [JR_SSArginiB_Sub010],275 nM
5,GGUAGCGCCAGAGAUACCAGUCAUAUCGCUCUGGAGUGAUGUUCCGGAACGUGCGGAGAAGACCCUUGGCAGCUCAUGACGGUAU [Exclusion Theophylline B GF 3],219 nM
6,AAAGAAGUAUACUUCAAGAGGUAUGCUGAUACCAGAGUCAAUUGACUCCCUUGGCAGCGGAUCGAGUGAUGUUCGUAACCUCAAA [AK3 SS Theophylline A],118 nM
7,AAGCCGGUUGCGGCCGCCACUUUUGCGGACCCGGUGCAGUGAUGUUGCGCAUCGCGGGUUGCUUAAAGGACCGGGCACCUCUAAC [theeternabot_sameState_KL_Trp_B_7],418 nM
8,CCUGCAGCUGUAACCGAGUGAUGCUACGGACGAGGACCGGUACGGCCGCCACUCGCCAGUGAUGUUGGUGUGGGAGGACGUAACU [KL-XTryp-A22],200 nM
9,UCCUGCAAUCUGCCACGAAAGUGGAUUGAUACCAGAGUCGAAAGACUCCCUUGGCAGCGAGUGAUGUUCGUAGCAGGUAAAUAAA [MatMod 6 - Jieux - Exclusion - Theophylline A],203 nM
10,AAGGCCGCGCGGUGAUGUUUCAUCGCCGCCCGAGGACCGGUACGGCCGCCACUCGGAUAUAUCGCAGUGAUGUUGCUCUAUAUCA [Exclusion - Tryptophan A],160 nM
11,CGUUCCUCUGUCGAUACCAGCUUCAGUUGGCGGCCAGUGAUGUUGGUAUCGCCGAUGCCAAGCCCUUGGCAGCGACAUGAGAACC [Uslaessobi],200 nM
12,UUUAUUAAGACGGCCGCCACUGAAUUAGAGUGAUGUUCUAUAAUUUCUAAAUUAAAUUUAUUCAACAGGACCGGGUCAAUUAUUA [JR_SSTryptoB_Sub011],384 nM
13,GAUCCAUGACAAGGAUAUUCGCCAACGGUGCCGGAGUGAUGUUCUGCACAACAGACUACAAGUAAGGAAGAAGGUGUCAGUUACC [theeternabot_sameState_KL_FMN_B_29],595 nM
14,AUGUCUGAUAGCAGUGAUGUUGCUUCAGAUACCAGACGAGAUCAUGUCCCUUGGCAGCUGACACGGCACGUGCUAGGUUAGAUGA [whbob_Ex_Theo_A_th71],117 nM
15,AGUCCACUCUAAAGAGUGGACCUAAGGGAUACCAGUGAUGUUGGUCACCCUUGGCAGCCCACUGUCAUCGAUAAAGAUGGCAGAA,120 nM
16,GCGCGGCCCAGUGAUGUUGGGCCUCGGAGACGAGGACCGGUACGGCCGCCACUCGUCCGCGCAGCUGAGGCAAAAGCCUCGGCAA [Omei KL Tryp A SS B v6],207 nM
17,AAGCUCAGCGUGACUCGAUAAGAGUCACAACGAGGACCGGUACGGCCGCCACUCGAAAUAAGAGAGUGAUGUUCUCGCUGAGCAA [#SwitchBubble 6 #StaticStem #K4Late],631 nM
18,GGACGACAGGCGGCCGCCACUCACAGCAGCCAGCGAGUGAUGUUCGUAGCGGAGUGAUGUUCCGAGAGGACCGGGUCUGCAGUCC [Same State Tryptophan B GF 17],246 nM

# Same assay, conditions: Eterna round: R107; input ligand: arginine 13.2 mM
row,Sequence,apparent KD of K4 kissing-loop reporter
1,UUUACUCCGAGUGAUGUUCGGCGUAUCUGACGAGGACCGGUACGGCCGCCACUCGGUUCGACUACGAAGGCCUUGGCCACAGAUU,174 nM
2,GCAGUGAUGUUGCUGAUGUACAGUGGGAUACGAGGACCGGUACGGCCGCCACUCGUACAGAAUUUGUUAAUACAUCGAUAAGUGA [XV],360 nM
3,GGAUAGGACAGAGGAUAUCCAGUGAUGUUGGAGAAUUCUCCUUCAACAUGUCACAAAAGUGGCAUGGGAGAAGGCUGUCCUAUCG [Mod of Eli's FmnBX 29 v2],120 nM
4,AAUCAAUACAGAAGGAGCGUGACAUUUGCUAUUGUAAUUUUAGCUAGUGAUGUUAGCAUUUCACAGGUAGGUCGCUGUACAUUUA [JR_SSArginiB_Sub010],324 nM
5,GGUAGCGCCAGAGAUACCAGUCAUAUCGCUCUGGAGUGAUGUUCCGGAACGUGCGGAGAAGACCCUUGGCAGCUCAUGACGGUAU [Exclusion Theophylline B GF 3],175 nM
6,AAAGAAGUAUACUUCAAGAGGUAUGCUGAUACCAGAGUCAAUUGACUCCCUUGGCAGCGGAUCGAGUGAUGUUCGUAACCUCAAA [AK3 SS Theophylline A],178 nM
7,AAGCCGGUUGCGGCCGCCACUUUUGCGGACCCGGUGCAGUGAUGUUGCGCAUCGCGGGUUGCUUAAAGGACCGGGCACCUCUAAC [theeternabot_sameState_KL_Trp_B_7],359 nM
8,CCUGCAGCUGUAACCGAGUGAUGCUACGGACGAGGACCGGUACGGCCGCCACUCGCCAGUGAUGUUGGUGUGGGAGGACGUAACU [KL-XTryp-A22],140 nM
9,UCCUGCAAUCUGCCACGAAAGUGGAUUGAUACCAGAGUCGAAAGACUCCCUUGGCAGCGAGUGAUGUUCGUAGCAGGUAAAUAAA [MatMod 6 - Jieux - Exclusion - Theophylline A],221 nM
10,AAGGCCGCGCGGUGAUGUUUCAUCGCCGCCCGAGGACCGGUACGGCCGCCACUCGGAUAUAUCGCAGUGAUGUUGCUCUAUAUCA [Exclusion - Tryptophan A],151 nM
11,CGUUCCUCUGUCGAUACCAGCUUCAGUUGGCGGCCAGUGAUGUUGGUAUCGCCGAUGCCAAGCCCUUGGCAGCGACAUGAGAACC [Uslaessobi],166 nM
12,UUUAUUAAGACGGCCGCCACUGAAUUAGAGUGAUGUUCUAUAAUUUCUAAAUUAAAUUUAUUCAACAGGACCGGGUCAAUUAUUA [JR_SSTryptoB_Sub011],364 nM
13,GAUCCAUGACAAGGAUAUUCGCCAACGGUGCCGGAGUGAUGUUCUGCACAACAGACUACAAGUAAGGAAGAAGGUGUCAGUUACC [theeternabot_sameState_KL_FMN_B_29],843 nM
14,AUGUCUGAUAGCAGUGAUGUUGCUUCAGAUACCAGACGAGAUCAUGUCCCUUGGCAGCUGACACGGCACGUGCUAGGUUAGAUGA [whbob_Ex_Theo_A_th71],94.4 nM
15,AGUCCACUCUAAAGAGUGGACCUAAGGGAUACCAGUGAUGUUGGUCACCCUUGGCAGCCCACUGUCAUCGAUAAAGAUGGCAGAA,98.1 nM
16,GCGCGGCCCAGUGAUGUUGGGCCUCGGAGACGAGGACCGGUACGGCCGCCACUCGUCCGCGCAGCUGAGGCAAAAGCCUCGGCAA [Omei KL Tryp A SS B v6],190 nM
17,AAGCUCAGCGUGACUCGAUAAGAGUCACAACGAGGACCGGUACGGCCGCCACUCGAAAUAAGAGAGUGAUGUUCUCGCUGAGCAA [#SwitchBubble 6 #StaticStem #K4Late],344 nM
18,GGACGACAGGCGGCCGCCACUCACAGCAGCCAGCGAGUGAUGUUCGUAGCGGAGUGAUGUUCCGAGAGGACCGGGUCUGCAGUCC [Same State Tryptophan B GF 17],178 nM

# Same assay, conditions: Eterna round: R107; input ligand: none
row,Sequence,apparent KD of K4 kissing-loop reporter
1,UUUACUCCGAGUGAUGUUCGGCGUAUCUGACGAGGACCGGUACGGCCGCCACUCGGUUCGACUACGAAGGCCUUGGCCACAGAUU,257 nM
2,GCAGUGAUGUUGCUGAUGUACAGUGGGAUACGAGGACCGGUACGGCCGCCACUCGUACAGAAUUUGUUAAUACAUCGAUAAGUGA [XV],526 nM
3,GGAUAGGACAGAGGAUAUCCAGUGAUGUUGGAGAAUUCUCCUUCAACAUGUCACAAAAGUGGCAUGGGAGAAGGCUGUCCUAUCG [Mod of Eli's FmnBX 29 v2],122 nM
4,AAUCAAUACAGAAGGAGCGUGACAUUUGCUAUUGUAAUUUUAGCUAGUGAUGUUAGCAUUUCACAGGUAGGUCGCUGUACAUUUA [JR_SSArginiB_Sub010],354 nM
5,GGUAGCGCCAGAGAUACCAGUCAUAUCGCUCUGGAGUGAUGUUCCGGAACGUGCGGAGAAGACCCUUGGCAGCUCAUGACGGUAU [Exclusion Theophylline B GF 3],189 nM
6,AAAGAAGUAUACUUCAAGAGGUAUGCUGAUACCAGAGUCAAUUGACUCCCUUGGCAGCGGAUCGAGUGAUGUUCGUAACCUCAAA [AK3 SS Theophylline A],153 nM
7,AAGCCGGUUGCGGCCGCCACUUUUGCGGACCCGGUGCAGUGAUGUUGCGCAUCGCGGGUUGCUUAAAGGACCGGGCACCUCUAAC [theeternabot_sameState_KL_Trp_B_7],401 nM
8,CCUGCAGCUGUAACCGAGUGAUGCUACGGACGAGGACCGGUACGGCCGCCACUCGCCAGUGAUGUUGGUGUGGGAGGACGUAACU [KL-XTryp-A22],190 nM
9,UCCUGCAAUCUGCCACGAAAGUGGAUUGAUACCAGAGUCGAAAGACUCCCUUGGCAGCGAGUGAUGUUCGUAGCAGGUAAAUAAA [MatMod 6 - Jieux - Exclusion - Theophylline A],206 nM
